Sequences and labels used below:
B1: MAdCAM Antibody Table 2 Clone 62 (antibody, human IgG1, V domains shown)
VH: QVQLVQSGAEVKKPGASVKVSCKASGYTFTSYDINWVRQAPGQGLEWMGWINPNSGTTGYAQKFQGRVTMTRDTSTSTVYMELSSLRSEDTAVYYCARSPYYYYGMDVWGQGTTVTVSS
VL: DIQMTQSPSSLSASVGDRVTITCRASHFISRWVAWYQQKPGKAPKLLIYAASTLQSGVPSRFSGSGSGTDFTLTISSLQPEDFATYYCQQSYSGISFGPGTKVDIK
B2: MAdCAM Antibody Table 2 Clone 57 (antibody, human IgG1, V domains shown)
VH: EVQLLESGGGLVQPGGSLRLSCAASGFSVSSNYMSWVRQAPGKGLEWVAGISYDGSSKPYADSVKGRFTISRDNSKNTLYLQMNSLRAEDTAVYYCARSRGIAARPLQHWGQGTLVTVSS
VL: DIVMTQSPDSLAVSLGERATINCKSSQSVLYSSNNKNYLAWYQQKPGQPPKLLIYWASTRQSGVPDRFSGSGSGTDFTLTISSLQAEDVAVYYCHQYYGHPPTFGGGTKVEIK
B3: MAdCAM Antibody Table 2 Clone 58 (antibody, human IgG1, V domains shown)
VH: B2 VH
VL: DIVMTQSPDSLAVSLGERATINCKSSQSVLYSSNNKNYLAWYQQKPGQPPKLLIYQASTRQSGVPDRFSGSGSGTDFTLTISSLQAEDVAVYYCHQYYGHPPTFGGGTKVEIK
B4: MAdCAM Antibody Table 2 Clone 63 (antibody, human IgG1, V domains shown)
VH: EVQLLESGGGLVQPGGSLRLSCAASGFTFNNYGMNWVRQAPGKGLEWVSRINSDGSSTSYADSVKGRFTISRDNSKNTLYLQMNSLRAEDTAVYYCARGAYYYYYMDVWGQGTLVTVSS
VL: EIVMTQSPATLSVSPGERATLSCRASQSVSGSYLAWYQQKPGQAPRLLIYATSSRASGIPARFSGSGSGTEFTLTISSLQSEDFAVYYCQQYYSGLTFGQGTKVEIK
B5: MAdCAM Antibody Table 2 Clone 55 (antibody, human IgG1, V domains shown)
VH: EVQLLESGGGLVQPGGSLRLSCAASGFTFDDFAMHWVRQAPGKGLEWVSGISGNGDSRYYADSVKGRFTISRDNSKNTLYLQMNSLRAEDTAVYYCARDASYGGNYGMDVWGQGTTVTVSS
VL: DIQMTQSPSSLSASVGDRVTITCQASQDIRNYLNWYQQKPGKAPKLLIYKASTLESGVPSRFSGSGSGTDFTLTISSLQPEDFATYYCQQANSFPLTFGPGTKVDIK
B6: MAdCAM Antibody Table 2 Clone 64 (antibody, human IgG1, V domains shown)
VH: EVQLLESGGGLVQPGGSLRLSCAASGFTFSNSDMNWVRQAPGKGLEWVAHIWNDGSQKYYADSVKGRFTISRDNSKNTLYLQMNSLRAEDTAVYYCARDRTDPGYSSAMDVWGQGTTVTVSS
VL: B5 VL with Q24R, N34G, K50D, T53S, S56T, N92T, F94L, P100G, D105E
B7: MAdCAM Antibody Table 2 Clone 73 (antibody, human IgG1, V domains shown)
VH: QVQLVQSGAEVKKPGASVKVSCKASGYTFTSNYVHWVRQAPGQGLEWMGRINPHSGDTSYAQKFQGRVTMTRDTSTSTVYMELSSLRSEDTAVYYCARAGQLWSDWYFDLWGRGTLVTVSS
VL: B5 VL with K50A, S52T, T53A, E55R, S56T, A91S, N92Y, F94H, P100Q, D105E
B8: MAdCAM Antibody Table 2 Clone 56 (antibody, human IgG1, V domains shown)
VH: EVQLVESGGGLVKPGGSLRLSCAASGFTFSSYWMSWVRQAPGKGLEWVSAIGTGGGTYYAAPVKGRFTISRDDSKNTLYLQMNSLKTEDTAVYYCAREWLVPYYGMDVWGQGTTVTVSS
VL: DIQMTQSPSSLSASVGDRVTITCRASQSISRWLAWYQQKPGKAPKLLIYGASNLQSGVPSRFSGSGSGTDFTLTISSLQPEDFATYYCQQSYSTPWTFGQGTKVEIK
B9: MAdCAM Antibody Table 2 Clone 71 (antibody, human IgG1, V domains shown)
VH: QVQLVQSGAEVKKPGASVKVSCKASGYTFTSYYMHWVRQAPGQGLEWMGIINPSGGSTSYAQKFQGRVTMTRDTSTSTVYMELSSLRSEDTAVYYCARDSVAGTGGRYYGMDVWGQGTLVTVSS
VL: B8 VL with S28G, R31N, W32Y, L33F, G50A, N53S, S56G, T94L, W96Y, V104L
B10: MAdCAM Antibody Table 2 Clone 60 (antibody, human IgG1, V domains shown)
VH: EVQLLESGGGLVQPGGSLRLSCAASGFTFSDHGMHWVRQAPGKGLEWVSVIYGGESTYYADSVKGRFTISRDNSKNTLYLQMNSLRAEDTAVYYCARDPAVAGGGIFDYWGQGTLVTVSS
VL: B8 VL with S28G, R31N, W32Y, G50D, Q55E, S56T, P95C, W96Y, V104L
B11: MAdCAM Antibody Table 2 Clone 70 (antibody, human IgG1, V domains shown)
VH: QVQLVQSGAEVKKPGASVKVSCKASGYPFTDYYMHWVRQAPGQGLEWMGWIKPNSGDTEYAQKFQGRVTMTRDTSTSTVYMELSSLRSEDTAVYYCARDRFVGKPDYYYYGMDVWGQGTMVTVSS
VL: B8 VL with R31V, G50A, N53S, S93D, W96Y, V104L
B12: MAdCAM Antibody Table 2 Clone 67 (antibody, human IgG1, V domains shown)
VH: QVQLVQSGAEVKKPGASVKVSCKASGYTFTGYYMHWVRQAPGQGLEWMGMIYPRDGSTSYAQKFQGRVTMTRDTSTSTVYMELSSLRSEDTAVYYCAMTGWGYGMDVWGKGTTVTVSS
VL: B8 VL with S28G, S30N, R31N, W32Y, G50D, N53T, T94A, W96P, V104L
B13: MAdCAM Antibody Table 2 Clone 75 (antibody, human IgG1, V domains shown)
VH: EVQLLESGGGLVQPGGSLRLSCAASGFTFSDFWMHWVRQAPGKGLEWISYISGDSGYTNYADSVKGRFTISRDNSKNTLYLQMNSLRAEDTAVYYCARDRPYYYYMDVWGKGTTVTVSS
VL: B8 VL with I29V, W32S, G50A, N53S, S91Y, Y92K, T94Y, W96V
B14: MAdCAM Antibody Table 2 Clone 72 (antibody, human IgG1, V domains shown)
VH: QVQLVQSGAEVKKPGASVKVSCKASGYTFTSYYMHWVRQAPGQGLEWMGVINPIGGTTTYAQKFQGRVTMTRDTSTSTVYMELSSLRSEDTAVYYCASGAPSYYYYGMDVWGQGTLVTVSS
VL: B8 VL with R31S, W32Y, A34N, A51T, N53Y, Q55A, S56T, W96L
B15: MAdCAM Antibody Table 2 Clone 61 (antibody, human IgG1, V domains shown)
VH: QVQLVQSGAEVKKPGASVKVSCKASGDTFTGYYIHWVRQAPGQGLEWMGWINPNSGGTNYAQKFQGRVTMTRDTSTSTVYMELSSLRSEDTAVYYCARSGLWLGSYYGMDVWGQGTLVTVSS
VL: B8 VL with S28T, R31I, G50D, N53T, S91Y, Y92S, T94Y, W96L
B16: MAdCAM Antibody Table 2 Clone 68 (antibody, human IgG1, V domains shown)
VH: EVQLLESGGGLVQPGGSLRLSCAASGFTFGDYAMSWVRQAPGKGLEWVAVVSYDGTNKYYADSVKGRFTISRDNSKNTLYLQMNSLRAEDTAVYYCAKDICSSTSCYFDLWGRGTLVTVSS
VL: DIQMTQSPSSLSASVGDRVTITCRASQNINNYVNWYQQKPGKAPKLLIYDASNLETGVPSRFSGSGSGTDFTLTISSLQPEDFATYYCQQANSFPPTFGQGTRLEIK
B17: MAdCAM Antibody Table 2 Clone 69 (antibody, human IgG1, V domains shown)
VH: QVQLVQSGAEVKKPGASVKVSCKASGYTFTSYYMHWVRQAPGQGLEWMGIIDPSGGSTSYAQKFQGRVTMTRDTSTSTVYMELSSLRSEDTAVYYCAREEWSSGGVGYFDYWGQGTLVTVSS
VL: DIQMTQSPSSLSASVGDRVTITCRASQGISSYLAWYQQKPGKAPKLLIYATSSLQTGVPSRFSGSGSGTDFTLTISSLQPEDFATYYCQQTYSIPITFGQGTRLEIK
B18: MAdCAM Antibody Table 2 Clone 66 (antibody, human IgG1, V domains shown)
VH: QVQLVQSGAEVKKPGASVKVSCKASGYTFTGHYMHWVRQAPGQGLEWMGIINPSGGSTSYAQKFQGRVTMTRDTSTSTVYMELSSLRSEDTAVYYCARDGAWFGEEYYYGMDVWGQGTTVTVSS
VL: DIQMTQSPSSLSASVGDRVTITCRASQGISNWLAWYQQKPGKAPKLLIYDASNLETGVPSRFSGSGSGTDFTLTISSLQPEDFATYYCQQYYSFPLYTFGQGTKVEIK

Positions count from the first letter of the chain named.

One test concerns the target T1, human MAdCAM expressed on cells (human, UniProt Q13477 19-382).
T1 construct: whole, on cells; also called MADCAM1
T1 sequence (looked up): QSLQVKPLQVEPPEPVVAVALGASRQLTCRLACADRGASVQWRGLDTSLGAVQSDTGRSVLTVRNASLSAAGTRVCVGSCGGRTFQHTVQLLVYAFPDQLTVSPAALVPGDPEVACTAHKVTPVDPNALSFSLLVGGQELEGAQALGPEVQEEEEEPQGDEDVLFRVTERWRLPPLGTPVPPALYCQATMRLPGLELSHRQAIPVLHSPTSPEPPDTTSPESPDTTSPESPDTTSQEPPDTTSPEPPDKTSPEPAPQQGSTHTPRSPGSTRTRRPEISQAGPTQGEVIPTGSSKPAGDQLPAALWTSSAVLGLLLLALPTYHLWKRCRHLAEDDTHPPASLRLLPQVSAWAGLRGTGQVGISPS
Nature of the test: cell binding.
On to B1, for which the binding result is given as “binds”.
Same read-out and setting: next, B2: “binds”; B3: “binds”; B4: “binds”.
Same read-out and setting: for B5 the value was “binds”; for B6, “binds”.
The same measure, in the same setting: for B7 the value was “binds”; for B8, “binds”; for B9, “binds”.
Take B10: the binding result is reported as “binds”.
Turning to B11, the binding result is “binds”.
On the same count and under the same terms, for B12 the value was “binds”.
In the case of B13, the binding result is reported as “binds”.
On the same count and under the same terms, for B14 the value was “binds”; for B15, “binds”; for B16, “binds”.
Still for that read-out and setting: for B17 the value was “binds”.
Turning to B18, the binding result is on record as “binds”.

The target in the next test is T2, mouse MAdCAM expressed on cells (mouse, UniProt Q61826 22-405).
T2 construct: whole, on cells
T2 sequence (looked up): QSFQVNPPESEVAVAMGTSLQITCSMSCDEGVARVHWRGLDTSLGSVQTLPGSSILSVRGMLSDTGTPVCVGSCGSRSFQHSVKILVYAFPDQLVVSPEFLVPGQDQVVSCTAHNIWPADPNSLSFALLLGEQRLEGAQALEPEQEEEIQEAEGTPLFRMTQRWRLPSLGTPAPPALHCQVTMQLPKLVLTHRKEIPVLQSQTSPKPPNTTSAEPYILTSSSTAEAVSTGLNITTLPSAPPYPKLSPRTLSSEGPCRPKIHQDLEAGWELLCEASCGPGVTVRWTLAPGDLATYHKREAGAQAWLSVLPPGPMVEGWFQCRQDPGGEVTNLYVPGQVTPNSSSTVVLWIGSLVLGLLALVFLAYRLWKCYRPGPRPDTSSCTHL
Nature of the test: cell binding.
B1: the binding result is “no binding”.
In the case of B2, the binding result is “no binding”.
Same read-out and setting: next, B3: “no binding”.
Consider B4, for which the binding result is “no binding”.
Turning to B5, the binding result is recorded as “no binding”.
In the case of B6, the binding result was “no binding”.
Still for that read-out and setting: next, B7: “no binding”.
Still for that read-out and setting: for B8 the value was “no binding”.
Still for that read-out and setting: next, B9: “no binding”; B10: “binds”; B11: “no binding”.
With B12, the binding result is “no binding”.
Still for that read-out and setting: for B13 the value was “binds”; for B14, “no binding”.
Turning to B15, the binding result is “no binding”.
Still for that read-out and setting: for B16 the value was “no binding”; for B17, “no binding”.
On the same count and under the same terms, next, B18: “no binding”.

For the origin of these results see patent publication US20210206856A1 (PANDION OPERATIONS, published 2021).
